Residue numbers refer to the chain shown, from its start.
Assays:
[1] = biological target: T1, L2S of hE2 (residues 128-330) mutant R297A (human, UniProt P10515 214-416, R297A); assay: SPR
T1 sequence (looked up): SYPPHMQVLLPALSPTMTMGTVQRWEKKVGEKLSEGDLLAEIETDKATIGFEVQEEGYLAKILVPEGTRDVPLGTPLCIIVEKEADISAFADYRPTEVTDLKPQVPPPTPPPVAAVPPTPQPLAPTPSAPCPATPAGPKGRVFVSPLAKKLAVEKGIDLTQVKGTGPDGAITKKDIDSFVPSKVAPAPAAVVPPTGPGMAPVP

[2] = biological target: T2, L2S of hE2 (residues 128-330) mutant K276A (human, UniProt P10515 214-416, K276A); assay: SPR
T2 sequence (looked up): T1 sequence (looked up) with K149A, A170R

fold increase in KD against wild-type L2S [1]: 6.8 fold
fold increase in KD against wild-type L2S [2]: ~86 fold
B1: human pyruvate dehydrogenase (E1), wild type, α2β2 heterotetramer (complex)
chain 1: FANDATFEIKKCDLHRLEEGPPVTTVLTREDGLKYYRMMQTVRRMELKADQLYKQKIIRGFCHLCDGQEACCVGLEAGINPTDHLITAYRAHGFTFTRGLSVREILAELTGRKGGCAKGKGGSMHMYAKNFYGGNGIVGAQVPLGAGIALACKYNGKDEVCLTLYGDGAANQGQIFEAYNMAALWKLPCIFICENNRYGMGTSVERAAASTDYYKRGDFIPGLRVDGMDILCVREATRFAAAYCRSGKGPILMELQTYRYHGHSMSDPGVSYRTREEIQEVRSKSDPIMLLKDRMVNSNLASVEELKEIDVEVRKEIEDAAQFATADPEPPLEELGYHIYSSDPPFEVRGANQWIKFKSVS
chain 2: LQVTVRDAINQGMDEELERDEKVFLLGEEVAQYDGAYKVSRGLWKKYGDKRIIDTPISEMGFAGIAVGAAMAGLRPICEFMTFNFSMQAIDQVINSAAKTYYMSGGLQPVPIVFRGPNGASAGVAAQHSQCFAAWYGHCPGLKVVSPWNSEDAKGLIKSAIRDNNPVVVLENELMYGVPFEFPPEAQSKDFLIPIGKAKIERQGTHITVVSHSRPVGHCLEAAAVLSKEGVECEVINMRTIRPMDMETIEASVMKTNHLVTVEGGWPQFGVGAEICARIMEGPAFNFLDAPAVRVTGADVPMPYAKILEDNSIPQVKDIIFAIKKTLNI

— PMC2770179 (Journal of molecular catalysis. B, Enzymatic, 2009)
